# Earlier results in US8759488B2, “High stability streptavidin mutant proteins” (Isis Innovation Limited, priority 2009, dated 2014).
# “And” between values parts separate entries of the source, which are not always exact repeats. Identical values can stand only once.
# B1: monomeric streptavidin: streptavidin subunit unable to tetramerise, e.g. with mutations T76R, V125R, V55T and L109T (protein)
# chain: DPSKDSKAQVSAAEAGITGTWYNQLGSTFIVTAGADGALTGTYESAVGNAESRYTLTGRYDSAPATDGSGTALGWRVAWKNNYRNAHSATTWSGQYVGGAEARINTQWTLTSGTTEANAWKSTLRGHDTFTKVKPSAASIDAAKKAGVNNGNPLDAVQQ
molecule,measurement,setting,value
B1,half life for biotin,biotin,approximately 3 minutes
same,off rate of biotin,free biotin,0.0034 s⁻¹ and 0.0041 s⁻¹
